Data reported in patent US20260285956 (published 2026).
Numbering of substitutions follows the chain as printed.

B1: ACI-7071-704H9-Ab1 (antibody, V domains shown)
VH: EVQLVESGGDLVKPGGSLKLSCAASGFTFANYAMSWIRQTPEKRLEWVATISGGGLYINYPANLKGRFTISRDNAKNNLYLQMSHLKSEDTAMYYCVKDRGQNWSWFAYWGQGTLVTVSA
VL: QLVLTQSSSASFSLGASAKLTCTLSSQHSTYTIEWYQQQPLKPPKYVMELEKDGSHSTGDGIPDRFSGSSSGADRYLSISNIQPEDEAIYICGVGDTIKEQFVYVFGGGTKVTVL
B2: ACI-7071-707A6-Ab1 (antibody, V domains shown)
VH: EVQLVESGGVLVKPGGSLKLSCAASGFIFSSFSMSWVRQNPEKRLEWVATISAAGRYIYYPDNVKGRFTISRDNAKNNLYLYMSHVRSEDTAIYYCVKDRGLNWSWFAYWGQGTLVTVSA
VL: B1 VL with E51K, N81D, I89V
B3: ACI-7071-810H12-Ab1 (antibody, V domains shown)
VH: QVQLQQSGAELVRPGASVKLSCKALDYTFTDYEMHWVKQTPVHGLEWIGAVHPRSGGTVYNQRFRAKATLTADKSSSTAFIELSSLTSEDSAVYFCTYYGYDEIYWGQGTLVTVSA
VL: DVVMTQISFSLPVSLGDQASISCRSSQSLVHSDGTTYLHWYLQKPGQSPKLLIYKVSNRFSGVPDRFSGSGSGTDFTLKISRVEAEDLGVYFCSQSTHAPYTFGGGTKLEIK
B4: ACI-7071-806H5-Ab1 (antibody, V domains shown)
VH: DVKLEDSGGGLVQPEGSMKLSCVASGFIFSDAWMAWVRQSPEKGLEWVAEIRGRASSHATYYAESVKGRFTISRDDSKSSVYLQMNSLRAEDTGVYYCTRGVNYWGQGTALTVSS
VL: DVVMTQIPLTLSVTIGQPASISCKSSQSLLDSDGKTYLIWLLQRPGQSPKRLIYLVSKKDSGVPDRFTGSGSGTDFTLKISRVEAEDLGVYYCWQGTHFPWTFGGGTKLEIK
B5: ACI-7071-801H1-Ab1 (antibody, V domains shown)
VH: EVQLQQSGPELVKPGASVKISCKTSGYTFTEYTMHWVKQSHGQSLEWIGGIHPNNGGTIYNQKFKGRATLTVDKSSSTAYMEFRSLTSDDSAVYYCASPCWGQGTSVTVSS
VL: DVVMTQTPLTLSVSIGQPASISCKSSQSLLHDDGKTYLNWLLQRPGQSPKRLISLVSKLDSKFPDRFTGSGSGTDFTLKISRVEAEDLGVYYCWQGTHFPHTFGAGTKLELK

target: soluble TDP-43 (human); assay: SPR
Sequence (chain, as listed by the source): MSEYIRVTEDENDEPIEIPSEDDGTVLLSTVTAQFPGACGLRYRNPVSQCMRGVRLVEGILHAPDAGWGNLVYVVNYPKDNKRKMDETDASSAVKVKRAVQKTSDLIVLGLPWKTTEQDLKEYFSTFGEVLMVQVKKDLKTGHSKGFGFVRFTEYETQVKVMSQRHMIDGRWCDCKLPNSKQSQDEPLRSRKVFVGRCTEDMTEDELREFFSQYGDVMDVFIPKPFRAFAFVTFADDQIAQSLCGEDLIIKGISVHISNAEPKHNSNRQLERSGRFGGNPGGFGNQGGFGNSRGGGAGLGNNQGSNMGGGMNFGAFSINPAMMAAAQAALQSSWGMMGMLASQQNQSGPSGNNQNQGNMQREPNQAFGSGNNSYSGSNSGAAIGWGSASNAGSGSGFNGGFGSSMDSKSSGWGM

Binder | Kd [nM]
B1 | 0.23
B2 | 0.11
B3 | 0.38
B4 | 0.2
B5 | 0.75
